According to the Human Domainome abundance scans (Beltran et al. 2025):
± gives the uncertainty stated by the source.

B1: Membrane-associated guanylate kinase, WW and PDZ domain-containing protein 1, residues 352 to 401; numbered along this chain, Q96QZ7 (parent)
chain: TEELDSELELPAGWEKIEDPVYGIYYVDHINRKTQYENPVLEAKRKKQLE

Variants of: B1
Test: abundance fitness (aPCA) (normalised: wild type 0, dead -1); higher = more abundant; growth selection in yeast, the domain comes from the species named
Conditions: Homo sapiens
Variant E18I has an abundance fitness of -0.196 ± 0.11.
Work on E18K yielded an abundance fitness of -0.269 ± 0.12.
For E18L, the abundance fitness was -0.311 ± 0.062.
In the case of E18M, the abundance fitness is reported as -0.231 ± 0.054.
With E18N the abundance fitness was -0.03 ± 0.097.
Variant E18P has an abundance fitness of -0.549 ± 0.13.
For E18Q, the abundance fitness was -0.794 ± 0.45.
E18R showed an abundance fitness of -0.461 ± 0.039.
E18S showed an abundance fitness of -0.33 ± 0.081.
Work on E18T yielded an abundance fitness of 0.001 ± 0.08.
Work on E18V yielded an abundance fitness of -0.1 ± 0.068.
Variant E18W has an abundance fitness of -0.745 ± 0.12.
E18Y showed an abundance fitness of -0.39 ± 0.13.
Variant D19A has an abundance fitness of -0.551 ± 0.086.
For D19C, the abundance fitness was -0.015 ± 0.044.
In the case of D19G, the abundance fitness is reported as -0.596 ± 0.044.
Variant D19H has an abundance fitness of -0.114 ± 0.094.
Work on D19I yielded an abundance fitness of -0.633 ± 0.05.
Work on D19K yielded an abundance fitness of -0.579 ± 0.2.
For D19L, the abundance fitness was -0.985 ± 0.11.
Work on D19M yielded an abundance fitness of -0.845 ± 0.068.
Variant D19N has an abundance fitness of -0.611 ± 0.16.
D19Q showed an abundance fitness of -0.66 ± 0.051.
D19R showed an abundance fitness of -0.855 ± 0.085.
D19S showed an abundance fitness of -0.163 ± 0.063.
Variant D19W has an abundance fitness of -1.03 ± 0.085.
In the case of D19Y, the abundance fitness is reported as -0.861 ± 0.078.
P20E gave an abundance fitness of -0.426 ± 0.33.
P20M gave an abundance fitness of -0.314 ± 0.081.
With P20W the abundance fitness was -0.339 ± 0.35.
Work on V21A yielded an abundance fitness of 0.097 ± 0.058.
V21C showed an abundance fitness of -0.038 ± 0.058.
For V21E, the abundance fitness was 0.063 ± 0.081.
V21F gave an abundance fitness of 0.041 ± 0.12.
Work on V21G yielded an abundance fitness of -0.307 ± 0.057.
V21H gave an abundance fitness of -0.232 ± 0.13.
In the case of V21I, the abundance fitness is reported as -0.034 ± 0.098.
Work on V21K yielded an abundance fitness of 0.012 ± 0.095.
Variant V21L has an abundance fitness of 0.026 ± 0.043.
V21M showed an abundance fitness of -0.517 ± 0.12.
Variant V21N has an abundance fitness of -0.056 ± 0.072.
In the case of V21P, the abundance fitness is reported as -0.322 ± 0.056.
In the case of V21Q, the abundance fitness is reported as -0.008 ± 0.099.
With V21R the abundance fitness was -0.012 ± 0.049.
Variant V21S has an abundance fitness of -0.165 ± 0.063.
V21T gave an abundance fitness of 0.081 ± 0.058.
With V21W the abundance fitness was -0.241 ± 0.075.
V21Y showed an abundance fitness of -0.162 ± 0.063.
With Y22A the abundance fitness was -0.041 ± 0.068.
Y22C gave an abundance fitness of -0.061 ± 0.055.
For Y22D, the abundance fitness was -0.078 ± 0.069.
Work on Y22E yielded an abundance fitness of -0.004 ± 0.06.
For Y22F, the abundance fitness was -0.122 ± 0.06.
In the case of Y22G, the abundance fitness is reported as -0.027 ± 0.051.
In the case of Y22H, the abundance fitness is reported as 0.1 ± 0.11.
Variant Y22I has an abundance fitness of -0.162 ± 0.092.
With Y22K the abundance fitness was 0.082 ± 0.055.
For Y22M, the abundance fitness was -0.378 ± 0.099.
Y22N gave an abundance fitness of -0.199 ± 0.12.
Y22P showed an abundance fitness of -0.24 ± 0.094.
Variant Y22Q has an abundance fitness of -0.156 ± 0.11.
Y22R showed an abundance fitness of 0.056 ± 0.042.
Work on Y22S yielded an abundance fitness of -0.035 ± 0.043.
With Y22T the abundance fitness was -0.159 ± 0.091.
With Y22V the abundance fitness was -0.051 ± 0.063.
Work on Y22W yielded an abundance fitness of -0.186 ± 0.077.
Variant G23A has an abundance fitness of -1.1 ± 0.083.
Work on G23C yielded an abundance fitness of -1.08 ± 0.21.
Variant G23D has an abundance fitness of -0.884 ± 0.093.
With G23E the abundance fitness was -0.801 ± 0.12.
With G23F the abundance fitness was -0.826 ± 0.3.
G23H showed an abundance fitness of -0.822 ± 0.26.
In the case of G23K, the abundance fitness is reported as -0.762 ± 0.079.
With G23L the abundance fitness was -1.13 ± 0.059.
Variant G23M has an abundance fitness of -0.9 ± 0.17.
Work on G23N yielded an abundance fitness of -0.822 ± 0.14.
With G23P the abundance fitness was -0.958 ± 0.14.
G23Q gave an abundance fitness of -1.34 ± 0.1.
In the case of G23R, the abundance fitness is reported as -0.56 ± 0.048.
G23S gave an abundance fitness of -0.79 ± 0.052.
G23V gave an abundance fitness of -1.2 ± 0.11.
With G23W the abundance fitness was -0.8 ± 0.052.
Work on I24A yielded an abundance fitness of -0.323 ± 0.07.
For I24C, the abundance fitness was -0.22 ± 0.065.
Work on I24D yielded an abundance fitness of -0.387 ± 0.16.
In the case of I24E, the abundance fitness is reported as 0.067 ± 0.082.
With I24F the abundance fitness was 0.015 ± 0.45.
I24G showed an abundance fitness of -0.208 ± 0.06.
Variant I24H has an abundance fitness of -0.64 ± 0.22.
In the case of I24K, the abundance fitness is reported as -0.238 ± 0.097.
I24L showed an abundance fitness of -0.223 ± 0.059.
With I24P the abundance fitness was -0.057 ± 0.055.
I24Q showed an abundance fitness of -0.225 ± 0.1.
Work on I24R yielded an abundance fitness of -0.203 ± 0.042.
I24S gave an abundance fitness of -0.144 ± 0.074.
For I24T, the abundance fitness was 0.039 ± 0.047.
I24V showed an abundance fitness of -0.066 ± 0.06.
I24W gave an abundance fitness of -0.344 ± 0.07.
Variant I24Y has an abundance fitness of -0.569 ± 0.14.
Y25A showed an abundance fitness of -0.278 ± 0.047.
Y25C gave an abundance fitness of -0.251 ± 0.069.
Y25D gave an abundance fitness of -0.333 ± 0.085.
Work on Y25E yielded an abundance fitness of -0.26 ± 0.082.
For Y25F, the abundance fitness was -0.148 ± 0.07.
Y25G gave an abundance fitness of -0.299 ± 0.041.
Work on Y25H yielded an abundance fitness of -0.192 ± 0.092.
Y25I gave an abundance fitness of -0.053 ± 0.09.
Variant Y25K has an abundance fitness of 0.007 ± 0.083.
With Y25L the abundance fitness was -0.593 ± 0.053.
In the case of Y25M, the abundance fitness is reported as -0.033 ± 0.075.
Work on Y25N yielded an abundance fitness of -0.447 ± 0.077.
Variant Y25P has an abundance fitness of -0.367 ± 0.077.
In the case of Y25Q, the abundance fitness is reported as -0.14 ± 0.073.
Y25S gave an abundance fitness of -0.119 ± 0.044.
Variant Y25T has an abundance fitness of -0.266 ± 0.061.
For Y25V, the abundance fitness was -0.079 ± 0.054.
For Y25W, the abundance fitness was -0.361 ± 0.061.
With Y26A the abundance fitness was -0.321 ± 0.044.
For Y26E, the abundance fitness was -0.213 ± 0.054.
Work on Y26F yielded an abundance fitness of -0.137 ± 0.071.
With Y26G the abundance fitness was -0.395 ± 0.055.
Y26I showed an abundance fitness of -0.982 ± 0.15.
Y26K gave an abundance fitness of -0.563 ± 0.056.
With Y26L the abundance fitness was -0.741 ± 0.074.
With Y26M the abundance fitness was -0.552 ± 0.08.
Y26N gave an abundance fitness of -0.54 ± 0.16.
With Y26P the abundance fitness was -0.404 ± 0.052.
Work on Y26Q yielded an abundance fitness of -0.385 ± 0.069.
Y26R showed an abundance fitness of -0.549 ± 0.047.
Y26S showed an abundance fitness of -0.337 ± 0.065.
Variant Y26T has an abundance fitness of -0.457 ± 0.1.
Variant Y26V has an abundance fitness of -0.668 ± 0.05.
With Y26W the abundance fitness was -0.257 ± 0.055.
For V27A, the abundance fitness was -0.096 ± 0.06.
Work on V27C yielded an abundance fitness of -0.055 ± 0.062.
For V27D, the abundance fitness was 0.071 ± 0.084.
For V27E, the abundance fitness was -0.229 ± 0.056.
V27G gave an abundance fitness of -0.378 ± 0.04.
In the case of V27H, the abundance fitness is reported as -0.307 ± 0.061.
For V27I, the abundance fitness was -0.178 ± 0.098.
V27K gave an abundance fitness of 0.044 ± 0.062.
Work on V27L yielded an abundance fitness of -0.073 ± 0.062.
For V27M, the abundance fitness was 0.038 ± 0.068.
For V27N, the abundance fitness was -0.34 ± 0.12.
In the case of V27P, the abundance fitness is reported as -0.394 ± 0.055.
For V27Q, the abundance fitness was -0.227 ± 0.087.
In the case of V27R, the abundance fitness is reported as -0.069 ± 0.044.
V27T showed an abundance fitness of -0.26 ± 0.042.
V27W gave an abundance fitness of -0.242 ± 0.053.
D28A gave an abundance fitness of -1.16 ± 0.095.
Work on D28C yielded an abundance fitness of -1 ± 0.066.
D28E gave an abundance fitness of -0.696 ± 0.065.
With D28F the abundance fitness was -1.12 ± 0.27.
For D28G, the abundance fitness was -1.07 ± 0.065.
Variant D28H has an abundance fitness of -0.634 ± 0.048.
D28K gave an abundance fitness of -0.764 ± 0.13.
Variant D28M has an abundance fitness of -1.14 ± 0.15.
Variant D28N has an abundance fitness of -0.303 ± 0.086.
D28P gave an abundance fitness of -0.855 ± 0.14.
In the case of D28Q, the abundance fitness is reported as -0.934 ± 0.14.
D28R showed an abundance fitness of -1.09 ± 0.059.
With D28V the abundance fitness was -1.24 ± 0.067.
With D28Y the abundance fitness was -0.861 ± 0.24.
For H29A, the abundance fitness was -0.229 ± 0.056.
H29C gave an abundance fitness of -0.502 ± 0.095.
H29D gave an abundance fitness of -0.535 ± 0.091.
For H29E, the abundance fitness was -0.354 ± 0.081.
